Test results taken from US7479478B2, “Human parathyroid hormone modifications, preparation and use” (The General Hospital Corporation, priority 1998, dated 2009).
No end group written: not given here.

Target: T1, human PTH-1 receptors (Homo sapiens, UniProt Q03431)
T1 construct: expressed in transfected cells
T1 sequence (Q03431 27-593): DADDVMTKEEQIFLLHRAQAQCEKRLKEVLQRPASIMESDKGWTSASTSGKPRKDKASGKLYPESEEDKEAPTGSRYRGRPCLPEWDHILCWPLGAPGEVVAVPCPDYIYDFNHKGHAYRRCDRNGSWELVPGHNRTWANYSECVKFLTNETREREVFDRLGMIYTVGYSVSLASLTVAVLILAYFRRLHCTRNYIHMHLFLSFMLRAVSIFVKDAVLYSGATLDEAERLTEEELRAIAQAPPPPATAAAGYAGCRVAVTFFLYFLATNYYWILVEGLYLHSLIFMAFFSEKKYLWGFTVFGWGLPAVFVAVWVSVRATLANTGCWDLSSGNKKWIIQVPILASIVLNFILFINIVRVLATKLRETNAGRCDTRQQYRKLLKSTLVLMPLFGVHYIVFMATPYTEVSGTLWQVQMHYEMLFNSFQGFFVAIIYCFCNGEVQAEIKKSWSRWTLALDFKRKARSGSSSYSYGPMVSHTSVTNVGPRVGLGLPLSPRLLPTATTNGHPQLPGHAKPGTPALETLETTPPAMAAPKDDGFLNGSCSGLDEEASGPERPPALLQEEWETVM
Experiment: AC activation in cells that express fewer human PTH-1 receptors (LLC-PK1 subclones, SaOS-2)
Type: cell-based
Conditions: LLC-PKI or SaOS-2 osteosarcoma cells, 10,000-100,000 receptors per cell; data not shown
Description: Intracellular cAMP accumulation, PLC activation and PTHR binding affinity were measured as previously reported (Bringhurst, F. R., et al., Endocrinology 132(5):2090-2098 (1993); Guo, J., et al., Endocrinology 136(9):3884-3891 (1995)). Intracellular cAMP accumulation was measured in extracts of cells that were exposed to human PTH peptides in the presence of isobutylmethyxanthine (IBMX, 1 mM) at 37° C. for 15 min. After terminating the reactions by aspiration and freezing in liquid nitrogen, cell monolayers were extracted with 50 mM HCl and cAMP was measured using a radioimmunoassay kit (Dupont-New England Nuclear, Boston, Mass.).
The possibility that the [Gly^1,Arg^19]hPTH-(1-28) peptide might be useful, especially in rodent models, as a signal-selective analog to dissociate AC from PLC signaling via the PTH-1 receptor was examined further using the EW5 subclone of LLC-PK1 cells that stably expresses rat PTH-1 receptors (Guo, J., et al., Endocrinology 136(9):3884-3891 (1995)). […]

Sequence: GVSEIQLMHNLGKHLNSMRRVEWLRKKL [[Gly^1,Arg^19]hPTH-(1-28)]
- fold reduction of AC activation relative to hPTH-(1-34): 10-20 fold
